From the nanobody polyreactivity screen of Harvey et al. (2022)

Test: yeast display, Sf9 membrane polyspecificity reagent, FACS + sequencing; frameworks hold sequencing errors
Method in brief: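 A nanobody's polyreactivity label depends on the gate it was sorted from. Yeast display cells were stained with 10% biotinylated, detergent-solubilized Sf9 membrane reagent for 1 hour at 4 °C, enriched on streptavidin microbeads and sorted by FACS. The low and high (top ~1%) gates were set on anti-HA fluorescence for expression and streptavidin fluorescence for reagent binding.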

Row | Sequence | polyreactivity (PSR sort gate)
1 | QVQVVESGGGLVKAGGSLRLSCAASGGTFGNYAMGWYRQAPRKERELVAAINRSDGGTYYADSVKGRFTISRDNAKNTVYLQMNSLKPEDTAVYYCNAVDFYYDEPYDYWGQGTQVTVSS | low polyreactivity
2 | QVQVVESGGGLVQAGGSLGLSCAASGSIFGTNAMGWSRQAPGKERELVAAISSSGTSTYYADSVKGRFTISRDKAKNTDYLQMNSLKPEDTAVYYCAAATNWGGEYWGQGTQVTVSS | high polyreactivity
3 | QVQVVESGGGLVQAGGSLRLSCAASGFIFPYYAMGWYRQAPGKEWELVAAISWSGSNTYYADSVKGRFTISRDNAKNTDYLQMNSLKPEATAVYYCAARYSVYYFVQRNGRYDDWGQGTQVTVSS | high polyreactivity
4 | QVQVVESGGGLVQAGGSLRLSCAASGFTFILYAMGWYRQAPGKERELVAAISWSGGRTYYADSVKGRFTISRDNAKNTVYLQMNSLKPEDTAVYYCNAPYWTSKSRFDYWGQGTQVTVSS | low polyreactivity
5 | QVQVVESGGGLVQAGGSLRLSCAASGGTFGRYTMGWYRQAPGKERELVAAITYGGGSTYYADSVKGRFTISRDNAKNTVYLQMNSLKPEETAVYYCARRGILRGSRYDYWGQGTQVTVSS | high polyreactivity
6 | QVQVVESGGGLVQAGGSLRLSCAASGRIFGVNAMGWYRQAPGKERELVAVISSGGSTYYADSVKGRFTISRDNAKKTVYLQMNSLKPEDTAVYYCNAVVGRWFPYNLSDYWGQGTQVTVSS | low polyreactivity
7 | QVQVVESGGGLVQAGGSLRLSCAASGRTFVSYAMGWYRQATGKERELVAAISSSGGRTYYADSVKGRFTISRDNAMNTVYLQMNSLKPEDTAVYYCYAVRFISARYDYWGQGTQVTVSS | high polyreactivity
8 | QVQVVESGGGLVQAGGSLRLSCAASGSIFAYYAMGWYRQAPGKERELVAVISSDGSTYYADSVKGRFTISRDNAKNTVYLQMNSLKPEDTAVYYCAAYPGKYSRYNYWGQGTQVTVSS | high polyreactivity
9 | QVQVVESGGGLVQAGGSLRLSCAASGSTFGHNAMGWYRQAPGKERELVAAIDSGDGTTYADSVKGRFTISRDNAKNTVYLQMNSLKPEDTAVYYCNADGLGGADPEYLWYPVPDYDYWGQGTQVTVSS | low polyreactivity
10 | QVQVVESGGGLVQAGGSLRLSCAASGSTFVIYAMGWYRQAPGKEMELVAGITYSGGRTYYADSVKGRFTISRDNAKNTVYLHMNSLKPEDTAVYYCNARSTWPSGRYAHYRRYYYWGQGTQVTVSS | high polyreactivity
11 | QVQVVESGGGLVQAGGSLRLSCAPSGRIFQLYAMGRYRQAPRKERELVAVISSGDRTYYADSVKGRFTISRDNAKNTVYLQMNSLKPEDTAVYYCAALGWQSGGSRWHGEYDYWGQGTQVTVSS | low polyreactivity
12 | QVQVVESGGGLVQAGGSLSLSCAASGGIFHSNAMGWYRQAPGKERELVAAISWNTGSTYYADSVKGRFTISRDNAKQTVYLQMNSLKPEDTAVYYCAASYRSPWLRYDYWGQGTQVTVSS | high polyreactivity
13 | QVQVVESGGGLVQAGGSLSLSCAASGSTVGKYAMGWYRPAPGKERELVASITWSGASTFYADSVKGRFTISRDTAKTTVYLQLNSLKPEDTAVYYCAARSYKSYYIFDYWGQGTQVTVSS | low polyreactivity
14 | QVQVVESRGGLVQAGGSLRLSCAASGLIFLGYAMGWYRQAPGKERELVASIRTGGSTSYADSVKGRFTISRDNENNRVYLQMNSLKPEDTAVYYCAADRGRPNLPGDYWGQGSQVTVSS | low polyreactivity
15 | QVRLVESGGGLVQAGCSLRLSCAASGRTFGRYAIGWYRQAPGTERELVAAITGSGGSTYYADSVKGRFTISRDNAKNTVYLQMNSLKPVDTPVYYCNAGWRLGRGYWGQGTQVTLSS | high polyreactivity
16 | QVRLVESGGGLVQAGCSRRLSCAATGRFFAYNSMGWYRQAPGKEMEWVAAISSTGGSTYYADSVKGRFTISRDNAKNTVYLQMNSLKTEDTAVYYCAAAWCYRYSSYDYWGQGTQVTVSS | low polyreactivity

Row | Sequence | polyreactivity (PSR sort gate)
17 | QVRLVESGGGLVQAGGRLRLSCAASGRIFSSYSMGWYRQAPGKERELVASISWSGVRTRYADSVKGRFTISRDNAKNTVYLQLNSLKPEDTAVYYCAAVVPYYYRSPSNHMGYWGQGTQVTVSS | high polyreactivity
18 | QVRLVESGGGLVQAGGSLRLSCAASGFTFSPYAMGWYRQAPGKERELVAAITSSGGSTYYADSVKGRFTISRDNAKNTVYLQMNSLKPDDTAVSSCAKEIRYSSSVSESDYWGQGTQVSVSS | high polyreactivity
19 | QVRLVESGGGLVQAGGSLRLSCAASGRIFQYYAMGWYRQAPGKERELVASITSGGGSTYYADSVKGRFTISRDNAKNTVYVQMNSLKPEDSAVYYCAVDIYNYSNVHYYYWGQGTQVTVSS | low polyreactivity
20 | QVRLVESGGGLVQAGGSLRLSCAASGSIFDVYAMGCYRQAPGKERELVATISYGDSSTYYADSVKGRFTISRDTAKNTVYLQMNSLKPEDTAVYYCAADYLTAPRWRQWGEMDYWGQGTQVTVSS | low polyreactivity
21 | QVRLVETGGGLVQAGGSLRLSCAASGSTFPHYTMGWYIQAHGKERELVAVISRSGRTYYADSVKGRFTISRDNAKNTFYLQMNSLKPEDTAVYYCDVLVGRLVWSYNHWGQVTQVTVSS | high polyreactivity
22 | QVWLQESGGGLVQACGSLSLSCAASGTISRDIFMGWYRQAPGKEREFVATIAQGGITNYADSVKGRFTISRDNAKNTVYLQKNSVKPGDTAVYYCEALDGNCYWFYYWGQGTQVTVSS | high polyreactivity
23 | QYQLVESGGGLVQAGGSLRLSCAASGSTFRYYAMGWYRQAPGKETELVAAISTRGGTTYYADSVKGRFTISRDNAKNTVYLQMNSLKPEDTAVYYCAAEALVPLIYYYWGQGTQVTVSS | low polyreactivity
24 | REQLQESGGGLVQAGGSLRLSCAASGTIFIRGDMGWYRQSPGKEREFVATIDTGSNTYYADSEKGRFTISRDNAINAVYLQMYCLKPGYTAVYYCVVDYQLSGRLRYWGQGTQVTLSS | low polyreactivity
25 | RVHLQESGGGLVQAGGSLRLSCAASGTIFIRGDMGWYRQAPGKEREFVATIDTVSNTYYADSEKGRFTISRDNAKNAVYLQMNCLNPGDTAVYYCVVDYQLAGRLRYWGQGTQVTLSS | low polyreactivity
26 | RVQLQESGGGLVQAGGSLRLSCAASGTIFIRGDMGWYRQAPGKEREFVATIDTGSNTYYADSEKGRFTISRDNAKNAVYLQMNCQQPGDTAVYYCVVDYQLSGRLRYWGQGTQVTLSS | low polyreactivity
27 | RVQLQESGGGLVQAGGSLRLSCAPSSTISRYFYMGWYRQAPGKEREFVASITYGASTNYADSVKGRFTISRDNAKNTVYLQMNSLKPEDTAVYYCNAKQQPYGGTDYDYWGQGTQVTVSS | low polyreactivity
28 | RVQLQESGGGLVQAGGSLRLSCEASGTIFIRGDMGWYRQATGKEREFVATIDTGSNTYYADSEKGRFTISRDNAKNAVYLQMNCLKPGDTAVYYCVVDYQLSGRLRYWGQGTQVTLSS | low polyreactivity
29 | RVQLVESGGGLVQAGGSLRLSCAASGFTIQRYAMGWYRQAPGKVRELVAGITGGGNTKYADSVKGRFTISRDNAKNTVYLQMNSLKPEDTAVYYCAARGGVPRGKFGYDYWGQGTQVTVSS | high polyreactivity
30 | VVQLVESGGGLVQAGGRLRLSCAASGIIFGRYAMGWYRQAPGKERELVASITGNGSTTYYADSVKGRFTISRDNAKNTVYLQMNSLKPDDTAGYYCAADIVVGSPSAEFDYWGQGTQVTVSS | low polyreactivity
31 | YYADSVKGLFTISRDNAKNTVYLQMNSLNPEDTAVYYCNAGYYISFNPYDYWGQGTQVTVSS | low polyreactivity
